Measured values from patent US20060121056A1.

Molecular target: SNAP-25 (rat) (UniProt P60881)

Substance WGA-LHN/A conjugate (enzyme) has an IC50, inhibition of glycine release from eSC neurons (3 days) (microgrammes/ml) of 0.06 and an IC50, inhibition of substance P release from eDRG neurons (3 days) (microgrammes/ml) of 0.34.
